Results on eight molecules are retold here after article PMC4885022, “Structural Analysis of dsRNA Binding to Anti-viral Pattern Recognition Receptors LGP2 and MDA5” (Molecular Cell, 2016).

The target in one data set is T1, hLGP2 (Homo sapiens, UniProt Q96C10).
T1 construct: gene DHX58; construct not described in main text
T1 sequence (Q96C10 1-678): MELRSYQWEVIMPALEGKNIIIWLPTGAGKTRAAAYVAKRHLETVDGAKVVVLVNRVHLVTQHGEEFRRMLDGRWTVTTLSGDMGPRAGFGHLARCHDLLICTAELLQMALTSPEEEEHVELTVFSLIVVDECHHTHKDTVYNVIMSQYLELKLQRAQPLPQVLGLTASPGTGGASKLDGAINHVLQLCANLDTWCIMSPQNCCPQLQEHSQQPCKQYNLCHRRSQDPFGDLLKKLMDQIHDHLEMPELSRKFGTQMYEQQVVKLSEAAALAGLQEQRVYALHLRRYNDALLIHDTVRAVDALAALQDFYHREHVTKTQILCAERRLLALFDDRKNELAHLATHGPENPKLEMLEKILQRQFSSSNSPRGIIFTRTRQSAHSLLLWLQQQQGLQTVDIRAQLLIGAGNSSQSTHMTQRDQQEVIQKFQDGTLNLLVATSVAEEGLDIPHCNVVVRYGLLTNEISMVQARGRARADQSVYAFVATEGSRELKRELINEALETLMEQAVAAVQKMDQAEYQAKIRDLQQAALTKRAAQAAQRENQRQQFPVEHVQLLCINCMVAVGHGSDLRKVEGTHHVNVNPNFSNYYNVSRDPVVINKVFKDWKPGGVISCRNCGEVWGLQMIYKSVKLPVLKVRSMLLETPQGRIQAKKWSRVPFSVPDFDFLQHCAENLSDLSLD
Nature of the data set: malachite green ATPase assay. Format: biochemical. Particulars: dsRNA-dependent.

In data set [1] the target is T2, chLGP2 (chicken, UniProt G0YYQ5 1-674).
T2 sequence: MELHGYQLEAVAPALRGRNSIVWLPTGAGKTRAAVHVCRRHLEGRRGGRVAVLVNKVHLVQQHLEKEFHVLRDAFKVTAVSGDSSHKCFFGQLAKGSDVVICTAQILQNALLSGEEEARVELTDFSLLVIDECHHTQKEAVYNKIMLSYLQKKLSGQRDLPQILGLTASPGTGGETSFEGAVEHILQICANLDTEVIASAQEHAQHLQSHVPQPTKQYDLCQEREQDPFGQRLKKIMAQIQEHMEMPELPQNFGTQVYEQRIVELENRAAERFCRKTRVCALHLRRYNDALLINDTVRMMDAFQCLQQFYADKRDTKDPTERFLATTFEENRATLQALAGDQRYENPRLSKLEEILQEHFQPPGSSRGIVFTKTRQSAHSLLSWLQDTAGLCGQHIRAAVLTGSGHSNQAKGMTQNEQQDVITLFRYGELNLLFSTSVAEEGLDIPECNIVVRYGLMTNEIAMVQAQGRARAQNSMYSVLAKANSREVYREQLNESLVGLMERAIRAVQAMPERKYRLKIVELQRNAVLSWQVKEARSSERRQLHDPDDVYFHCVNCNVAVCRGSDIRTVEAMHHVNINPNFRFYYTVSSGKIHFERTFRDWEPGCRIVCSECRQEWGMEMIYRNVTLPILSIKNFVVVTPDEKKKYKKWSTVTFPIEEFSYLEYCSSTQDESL
The experiment in a line: fluorescence anisotropy; Fluorescence anisotropy: 5'-FAM 12-mer annealed to unlabeled complement, protein titrated, ex 495 / em 515 nm, fit with Hill coefficient (n=1 for RIG-I); buffer, salt, pH and temperature not in the material. The following applies: protein: recombinant; tags: SUMO fusion; label: 5'-FAM on one strand; 5' overhang.

Data set [2] deals with T2, chLGP2. Nature of the data set: crystal structure; no nucleotide; Fluorescence anisotropy: 5'-FAM 12-mer annealed to unlabeled complement, protein titrated, ex 495 / em 515 nm, fit with Hill coefficient (n=1 for RIG-I); buffer, salt, pH and temperature not in the material. The following applies: protein: recombinant; tags: SUMO fusion; 2 copies of self-complementary strand.

The target in data set [3] is T2, chLGP2. Nature of the data set: crystal structure; ADP:AlF4, Mg2+; Fluorescence anisotropy: 5'-FAM 12-mer annealed to unlabeled complement, protein titrated, ex 495 / em 515 nm, fit with Hill coefficient (n=1 for RIG-I); buffer, salt, pH and temperature not in the material. The following applies: protein: recombinant, tags: SUMO fusion.
A further data set addresses T3, hRIG-I (human, UniProt O95786 1-925).
T3 sequence: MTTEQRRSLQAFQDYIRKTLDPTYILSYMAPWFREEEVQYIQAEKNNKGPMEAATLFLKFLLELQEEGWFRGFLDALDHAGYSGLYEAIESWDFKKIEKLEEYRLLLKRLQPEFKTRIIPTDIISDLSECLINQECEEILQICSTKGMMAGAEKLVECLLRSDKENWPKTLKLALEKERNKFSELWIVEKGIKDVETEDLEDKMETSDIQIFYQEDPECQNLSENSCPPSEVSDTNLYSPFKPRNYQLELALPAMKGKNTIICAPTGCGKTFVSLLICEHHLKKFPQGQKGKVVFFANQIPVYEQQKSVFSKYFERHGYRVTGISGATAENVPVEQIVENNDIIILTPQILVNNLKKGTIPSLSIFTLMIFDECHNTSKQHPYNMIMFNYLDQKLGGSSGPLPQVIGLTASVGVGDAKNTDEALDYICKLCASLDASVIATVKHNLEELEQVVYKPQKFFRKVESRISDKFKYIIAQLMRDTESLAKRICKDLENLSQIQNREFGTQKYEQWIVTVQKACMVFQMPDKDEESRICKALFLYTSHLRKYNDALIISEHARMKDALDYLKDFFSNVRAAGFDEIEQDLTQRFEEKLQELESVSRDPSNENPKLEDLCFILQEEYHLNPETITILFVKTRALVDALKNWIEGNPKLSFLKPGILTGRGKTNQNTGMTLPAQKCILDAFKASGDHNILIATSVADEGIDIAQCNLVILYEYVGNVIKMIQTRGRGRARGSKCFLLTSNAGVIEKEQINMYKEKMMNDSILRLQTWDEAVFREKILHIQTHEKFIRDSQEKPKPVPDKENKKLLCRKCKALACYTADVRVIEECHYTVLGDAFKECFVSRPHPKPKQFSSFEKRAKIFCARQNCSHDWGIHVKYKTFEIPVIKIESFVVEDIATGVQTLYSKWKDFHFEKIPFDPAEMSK
The experiment in a line: fluorescence anisotropy; ADP:AlF4; Fluorescence anisotropy: 5'-FAM 12-mer annealed to unlabeled complement, protein titrated, ex 495 / em 515 nm, fit with Hill coefficient (n=1 for RIG-I); buffer, salt, pH and temperature not in the material. Particulars: protein: recombinant; label: 5'-FAM on one strand; blunt.

Data set [4] deals with T2, chLGP2. The experiment in a line: fluorescence anisotropy; same affinity as 5'OH; Fluorescence anisotropy: 5'-FAM 12-mer annealed to unlabeled complement, protein titrated, ex 495 / em 515 nm, fit with Hill coefficient (n=1 for RIG-I); buffer, salt, pH and temperature not in the material. The following applies: protein: recombinant; tags: SUMO fusion; label: 5'-FAM on one strand; blunt.

In data set [5] the target is T2, chLGP2. The experiment in a line: fluorescence anisotropy; affinity independent of bound nucleotide; Fluorescence anisotropy: 5'-FAM 12-mer annealed to unlabeled complement, protein titrated, ex 495 / em 515 nm, fit with Hill coefficient (n=1 for RIG-I); buffer, salt, pH and temperature not in the material. The following applies: protein: recombinant; tags: SUMO fusion; label: 5'-FAM on one strand; blunt.

Setting [6] is: blunt, 2 copies of self-complementary strand.

With `Nc1ncnc2c1ncn2[C@@H]1O[C@H](COP(=O)(O)OP(=O)(O)OP(=O)(O)O)[C@@H](O)[C@H]1O` [ATP], the “malachite green ATPase assay” value on hLGP2 was “both chLGP2 and hLGP2 ATPase activity is strictly dsRNA dependent”.

B1: 5' overhang dsRNA (anisotropy) (dsRNA)
RNA 1: AACCGGUCACGC
RNA 2: AAGCGUGACCGG
As to B1, the binding signal with chLGP2 [1] was ~2 fold lower affinity than blunt end.

B2: 5'p 12-mer palindromic dsRNA (dsRNA)
RNA 1: GGUAGCGCUACC
RNA 2: GGUAGCGCUACC
modifications: 5' monophosphate
As for B2, the binding result in the data set with chLGP2 [2] is on record as “binds”.

B3: 5'p 10-mer palindromic dsRNA (dsRNA)
RNA 1: GGUACGUACC
RNA 2: GGUACGUACC
modifications: 5' monophosphate
Take B3: the binding result with chLGP2 [3] (setting [6]) is given as “binds”.
For the molecule GGAGCGUGCCGUACGGCACGCUCCGG (structured_RNA, 5' triphosphate) [5'ppp 26-mer hairpin with 3' GG overhang], in the data set with chLGP2 [3] (hairpin, 3' overhang 2 nt (GG)), the binding result is “binds”.

B4: 5'ppp 10-mer palindromic dsRNA (dsRNA)
RNA 1: GGUACGUACC
RNA 2: GGUACGUACC
modifications: 5' triphosphate
For the molecule B4, the binding result with chLGP2 [3] (setting [6]) was “binds”.

B5: 5'ppp 12-mer blunt dsRNA (anisotropy) (dsRNA)
RNA 1: GGGCUCCACAUG
RNA 2: CAUGUGGAGCCC
modifications: 5' triphosphate
Regarding B5, in the data set with hRIG-I, the Kd is approximately 1 nM. Moreover, the binding result with chLGP2 [4] was “binds”.

B6: 5'OH 12-mer blunt dsRNA (anisotropy) (dsRNA)
RNA 1: GGGCUCCACAUG
RNA 2: CAUGUGGAGCCC
In the case of B6, the binding result in the data set with chLGP2 [5] is given as “binds”.
